Results from patent publication US9200265B2, “Anti-cocaine compositions and treatment” (priority 2006, dated 2015).
Like-named read-outs stand apart in the source and are kept apart here.

How the values were obtained:
CocE [1] = target: T1, CocE (Rhodococcus sp., UniProt Q9L9D7); experiment: Inhibition of CocE (cleavage of 4-nitrophenyl acetate); type: biochemical, Rhodococcus sp. MB 1
T1 construct: generating a full-length CocE gene encoding the T172R mutation; His6 (C); made in house; host or cells: E. coli (pET-22b(+))
Protocol: (§1) Benzoic acid prevented 37° C.-induced formation of high molecular weight CocE aggregates (0.1 mg/ml enzyme concentrations) (see, e.g., FIG. 35). Benzoic acid (uM quantities) stabilized 37° C.-induced activity loss (see, e.g., FIG. 36), although the mechanism of this stabilization is complicated due to substrate inhibition at higher concentrations.
CocE catalyzes the cleavage of 4-nitrophenyl acetate (4NPA) to 4-nitrophenol (4NP) and acetate. The cleavage reaction was monitored by observation of product formation at 400 nm. Both 4NP and 4NPA (mM range) prevented 37° C.-induced formation of high molecular weight CocE aggregates (0.1 mg/ml enzyme concentrations).

CocE [2] = target: T1, CocE; experiment: Stabilization against 37° C.-induced formation of high molecular weight CocE aggregates (gel); type: physicochemical, Rhodococcus sp. MB 1; conditions: 0.1 mg/ml enzyme, mM range
Protocol: Plasmids containing the mutations were transformed into E. coli BL21 cells and IPTG-induced enzyme was purified on Ni-Agarose. Expressed proteins were then tested for enzymatic activity and for thermostability at 37° C. Enzyme activity was measured using the spectrophotometric assay as described in Example 1. Thermostability was also tested via the spectrophotometric assay by pre-incubation of both wild-type and mutants at 37° C. for various times. Additionally, the nature of the thermo-instability of both the wild-type and T172R mutant was analyzed by polyacrylamide gel electrophoresis under denaturing and non-denaturing conditions. Briefly, mutant and wild-type enzyme at 0.1 mg/ml were incubated at 37° C. for various time-points, cooled to 4° C., mixed with SDS-loading dye containing-mercaptoethanol and run on 10% SDS-PAGE gels (denaturing conditions) or run on native 10% polyacrylamide gels (non-denaturing conditions) at 4° C. Gels were fixed with 10% methanol, 7% acetic acid for 30 minutes, and then stained with Sypro-Ruby protein gel stain (Molecular Probes, Invitrogen) for 3 hours. Protein staining was visualized under UV-light using an AlphaImager™ 3400 (Alpha Innotech). Finally, the exact melting temperature of both the wild-type and T172R mutant were determined by circular dichroism using a JASCO-810 spectropolarimeter driven by a JASCO V500/FP-750 analysis program for Windows. The CD spectra were measured in millidegrees and normalized against PBS buffer.
(§2) Cocaine esterase (CocE) cleaves cocaine to produce Benzoic acid and Ecgonine methyl ester. Briefly, alternative substrates and inhibitors of cocaine, as well as compounds able to thermostabilize the enzyme, were investigated generally by substituting amide and thiol analogues at the reactive ester bond, or removing the bond (for inhibitors), substituting benzoyl analogues in place of the benzoic acid leaving group, and/or removing or altering the methyl-ester group on the ecgonine portion of the molecule. As discussed below, it was determined that some substrates, products, and inhibitors stabilized thermal denaturation of wild type CocE, as well as prevented thermally-induced aggregation in gel electrophoresis.
as §1, with “Cocaine is the natural substrate of Cocaine esterase (CocE). Cocaine cleavage was monitored by a drop in absorbance at 240 nm. Cocaine (mM range)” for “Benzoic acid”, “33). Cocaine” for “35). Benzoic acid”, “34),” for “36),”

CocE [3] = target: T1, CocE; experiment: Stabilization of 37° C.-induced CocE activity loss; type: biochemical, Rhodococcus sp. MB 1; conditions: uM quantities
Description: as §2
as §1, with “Cocaine is the natural substrate of Cocaine esterase (CocE). Cocaine cleavage was monitored by a drop in absorbance at 240 nm. Cocaine (mM range)” for “Benzoic acid”, “33). Cocaine” for “35). Benzoic acid”, “34),” for “36),”

[4] = system: cocaine-induced lethality; experiment: Cocaine toxicity in mice, incl. repeated CocE doses; type: in vivo, mouse
Description: The animal toxicity model was similar to that described previously, except as described. Male NIH Swiss mice were used. For tail intravenous injection, mice are placed in a small restraint chamber that exposes their tail. A heat lamp with an infrared, 250 w bulb is placed about 4 inches from the tail, and left for a couple of minutes. The tail is then cleansed with an alcohol wipe and a 30 G ½ precision glide needle (Fisher Scientific), is inserted into one of the side veins for infusion. To verify whether the needle is in the vein a small amount of drug is infused, if in the correct location the solution should infuse easily without any indication of an incorrect subcutaneous location, which appears white at the site of injection. For intravenous catheterization, Male NIH Swiss mice are anesthetized with ketamine 100 mg/kg and xylazine 10 mg/kg co-administered i.p. When mice are no longer responsive to paw pressure, the neck is shaved and prepped by alternating Betadine and alcohol wipes. Under clean conditions, a right transverse neck incision is made and the external jugular vein is isolated. A catheter is inserted into the vein with the aid of a dissecting microscope to the level of the right atrium, and is secured in the vein with nylon, 4-0 sutures and tissue adhesive, 3M Vetbond (3M Animal Care Products, St. Paul, Minn.). The catheters are a short length of Tygon tubing with an inner diameter of 0.010 in. and an outer diameter of 0.030 in. (Small Parts, Inc., Miami Lakes, Fla.). A small incision is made in the middle of the animal's back, and a trocar inserted subcutaneously to exit at the ventral incision site. The catheter is then pulled through the trocar and brought out the animal's back where it is held in place with nylon suture material and the tissue adhesive. A short piece of steel wire with a diameter of 0.011 in. (Small Parts, Inc., Miami Lakes, Fla.) is inserted into the end of the catheter. The ventral incision is closed with 4-0 Vicryl suture material and the mouse placed under a heat lamp for recovery. Approximately an hour later, the mouse is returned to its home cage.
Mice that survived a first administration of the combination of 0.32 mg CocE and 320 mg/kg cocaine were given this combination again, 14 days following the initial administration.

[5] = cited from earlier work
[6] = humans; cited from earlier work
[7] = Cocaine blood levels and lethal concentrations in the rat (literature)
[8] = system: cocaine-induced lethality; experiment: Rodent model of acute cocaine toxicity (convulsions and lethality) in rats
[9] = CocE activity recovered after pegylation (initial rates of cocaine hydrolysis); conditions: m-PEG 5.5 KDa, preliminary
[10] = Gel filtration of samples incubated at 37° C.; type: physicochemical
Protocol: Higher Km values on day 3 were due to reuse of old cocaine.
Protection from aggregation of thermal stable CocE mutants was assessed using size exclusion chromatography. Briefly, enzymes were preincubated at 37° C. for 0 minutes or 60 minutes and resolved by size exclusion chromatography.

[11] = Cocaine spectrophotometric assay (240 nm), Michaelis-Menten kinetics
[12] = against (-) cocaine; cited from earlier work
[13] = system: cocaine-induced lethality; conditions: rats; cited from earlier work

Molecule: O=C(O)c1ccccc1 [Benzoic acid]
- Ki (CocE [1]): 310 µM
- 37° C.-induced formation of high molecular weight CocE aggregates (CocE [2]): prevented
- 37° C.-induced activity loss (CocE [3]): stabilized

Molecule: COC(=O)[C@H]1[C@@H](OC(=O)c2ccccc2)C[C@@H]2CC[C@H]1N2C [cocaine]
- time to death ([4]; 180 mg/kg i.p. cocaine alone, mice): about 3 min
- time of peak plasma levels ([5]; after an intraperitoneal injection): about 13 minutes
- lethal blood concentrations ([5]; rat): 50 to 128 µM
- lethal concentrations [6]: 20 to 200 µM
- estimated peak cocaine blood concentration ([7]; 100 mg/kg cocaine i.p.): 35 µM
- estimated peak cocaine blood concentration ([7]; 320 mg/kg cocaine i.p.): 113 µM
- animals in which death was observed ([8]; 100 mg/kg cocaine, rats): 100%
- time to death after administration ([8]; 100 mg/kg cocaine, rats): less than 15 minutes

B1: PEG-CocE: wild-type CocE linked with monomethoxy-PEG polymers (MW 5.5 KDa), mixture with 1 to 4 PEG chains (conjugate, UniProt Q9L9D7 1-574, looked up)
Cocaine esterase: MVDGNYSVASNVMVPMRDGVRLAVDLYRPDADGPVPVLLVRNPYDKFDVFAWSTQSTNWLEFVRDGYAVVIQDTRGLFASEGEFVPHVDDEADAEDTLSWILEQAWCDGNVGMFGVSYLGVTQWQAAVSGVGGLKAIAPSMASADLYRAPWYGPGGALSVEALLGWSALIGTGLITSRSDARPEDAADFVQLAAILNDVAGAASVTPLAEQPLLGRLIPWVIDQVVDHPDNDESWQSISLFERLGGLATPALITAGWYDGFVGESLRTFVAVKDNADARLVVGPWSHSNLTGRNADRKFGIAATYPIQEATTMHKAFFDRHLRGETDALAGVPKVRLFVMGIDEWRDETDWPLPDTAYTPFYLGGSGAANTSTGGGTLSTSISGTESADTYLYDPADPVPSLGGTLLFHNGDNGPADQRPIHDRDDVLCYSTEVLTDPVEVTGTVSARLFVSSSAVDTDFTAKLVDVFPDGRAIALCDGIVRMRYRETLVNPTLIEAGEIYEVAIDMLATSNVFLPGHRIMVQVSSSNFPKYDRNSNTGGVIAREQLEEMCTAVNRIHRGPEHPSHIVLPIIKR
modifications: monomethoxy-PEG 5.5 kDa, 1-4 chains
- initial CocE activity recovered after the pegylation reaction [9]: > 70%

B2: N197K (protein)
chain: MVDGNYSVASNVMVPMRDGVRLAVDLYRPDADGPVPVLLVRNPYDKFDVFAWSTQSTNWLEFVRDGYAVVIQDTRGLFASEGEFVPHVDDEADAEDTLSWILEQAWCDGNVGMFGVSYLGVTQWQAAVSGVGGLKAIAPSMASADLYRAPWYGPGGALSVEALLGWSALIGTGLITSRSDARPEDAADFVQLAAILKDVAGAASVTPLAEQPLLGRLIPWVIDQVVDHPDNDESWQSISLFERLGGLATPALITAGWYDGFVGESLRTFVAVKDNADARLVVGPWSHSNLTGRNADRKFGIAATYPIQEATTMHKAFFDRHLRGETDALAGVPKVRLFVMGIDEWRDETDWPLPDTAYTPFYLGGSGAANTSTGGGTLSTSISGTESADTYLYDPADPVPSLGGTLLFHNGDNGPADQRPIHDRDDVLCYSTEVLTDPVEVTGTVSARLFVSSSAVDTDFTAKLVDVFPDGRAIALCDGIVRMRYRETLVNPTLIEAGEIYEVAIDMLATSNVFLPGHRIMVQVSSSNFPKYDRNSNTGGVIAREQLEEMCTAVNRIHRGPEHPSHIVLPIIKRLEHHHHHH
modifications: Mutant CocE polypeptide
- gel filtration result [10]: formation of aggregates
- Km ([11]; Day 0, (0) at 37° C.): 34.8 µM
- Km ([11]; Day 0, (60) at 37° C.): 24.2 µM
- Km ([11]; Day 3 repeat, (0), old cocaine reused): 102 µM
- Km ([11]; Day 3 repeat, (60), old cocaine reused): 114 µM
- stability after 1 hour at 37° C. ([11]; day 0, preliminary): good stability

B3: BChE: serum butyrylcholinesterase (protein, UniProt P06276 29-602, looked up)
Cholinesterase: EDDIIIATKNGKVRGMNLTVFGGTVTAFLGIPYAQPPLGRLRFKKPQSLTKWSDIWNATKYANSCCQNIDQSFPGFHGSEMWNPNTDLSEDCLYLNVWIPAPKPKNATVLIWIYGGGFQTGTSSLHVYDGKFLARVERVIVVSMNYRVGALGFLALPGNPEAPGNMGLFDQQLALQWVQKNIAAFGGNPKSVTLFGESAGAASVSLHLLSPGSHSLFTRAILQSGSFNAPWAVTSLYEARNRTLNLAKLTGCSRENETEIIKCLRNKDPQEILLNEAFVVPYGTPLSVNFGPTVDGDFLTDMPDILLELGQFKKTQILVGVNKDEGTAFLVYGAPGFSKDNNSIITRKEFQEGLKIFFPGVSEFGKESILFHYTDWVDDQRPENYREALGDVVGDYNFICPALEFTKKFSEWGNNAFFYYFEHRSSKLPWPEWMGVMHGYEIEFVFGLPLERRDNYTKAEEILSRSIVKRWANFAKYGNPNETQNNSTSWPVFKSTEQKYLTLNTESTRIMTKLRAQQCRFWTSFFPKVLEMTGNIDEAEWEWKAGFHRWNNYMMDWKNQFNDYTSKKESCVGL
- change in the dose of cocaine necessary to kill the mice ([4]; 1 mg): slight increase
- time to death ([4]; 1 mg): not modified
- Kcat [12]: 4.1 min⁻¹
- Km [12]: 4.5 µM
- treatment required for protection against an LD50 dose of cocaine [13]: 10 mg/kg
- protection against cocaine-induced lethality ([8]; 13 mg (10-times molar equivalent dose), one minute before 180 mg/kg cocaine): no protection
